Results from patent US20070065896A1, “Methods and kits for quantifying metabolites or analytes” (priority 2003, published 2007).

Assays:
[1] = Kinetic properties of recombinant enzymes; type: biochemical; conditions: ± SD, n in brackets
Source text: (§1) Assayed according to Kredich and Tomkins (Journal of Biological Chemistry 241, 4955-4965, 1966)

[2] = Specific activities of recombinant enzymes towards different substrates (Kredich and Tomkins); type: biochemical
Source text: Specific activities (micromol/min/mg protein) towards different substrates
as §1

[3] = substrate O-succinyl-L-homoserine

B1: PA3107: Recombinant N-terminal His-tagged O-acetyl-L-homoserine thiol lyase from Pseudomonas aeruginosa, encoded by gene PA3107 (MetZ, Genbank AAA83435) (protein, UniProt P55218 1-403, looked up)
O-succinylhomoserine …: MTQDWDAGRLDSDLEGAAFDTLAVRAGQRRTPEGEHGEALFTTSSYVFRTAADAAARFAGEVPGNVYSRYTNPTVRTFEERIAALEGAEQAVATASGMSAILALVMSLCSSGDHVLVSRSVFGSTISLFDKYFKRFGIQVDYPPLSDLAAWEAACKPNTKLFFVESPSNPLAELVDIAALAEIAHAKGALLAVDNCFCTPALQQPLKLGADVVIHSATKYIDGQGRGMGGVVAGRGEQMKEVVGFLRTAGPTLSPFNAWLFLKGLETLRIRMQAHSASALALAEWLERQPGIERVYYAGLPSHPQHELARRQQSGFGAVVSFDVKGGRDAAWRFIDATRMVSITTNLGDTKTTIAHPATTSHGRLSPEDRARAGIGDSLIRVAVGLEDLDDLKADMARGLAAL
modifications: N-terminal His tag
Km ([1]; Km for Na2S, determined with 15 mM O-succinyl-L-homoserine): 800 ± 200 µM
Km ([1]; Km for O-succinyl-L-homoserine): 4400 ± 1000 µM
Vmax ([1]; substrate Na2S): 174.2 ± 39.8 (3) μmol/min/mg protein
Vmax [1, 3]: 180.4 ± 21.0 (3) μmol/min/mg protein
Specific activity ([2]; substrate O-acetyl-L-homoserine): <0.1 micromol/min/mg protein
Specific activity ([2]; substrate O-acetyl-serine): <0.1 micromol/min/mg protein
Specific activity [2, 3]: 139 micromol/min/mg protein
